# Reference: patent US20250121104A1 (FUSION PHARMACEUTICALS, published 2025)
# Where a chain is given by its changes, count along the chain named.
# T1: Ron (CD136) (UniProt Q04912 25-957, limits assumed)
# T1 sequence (looked up): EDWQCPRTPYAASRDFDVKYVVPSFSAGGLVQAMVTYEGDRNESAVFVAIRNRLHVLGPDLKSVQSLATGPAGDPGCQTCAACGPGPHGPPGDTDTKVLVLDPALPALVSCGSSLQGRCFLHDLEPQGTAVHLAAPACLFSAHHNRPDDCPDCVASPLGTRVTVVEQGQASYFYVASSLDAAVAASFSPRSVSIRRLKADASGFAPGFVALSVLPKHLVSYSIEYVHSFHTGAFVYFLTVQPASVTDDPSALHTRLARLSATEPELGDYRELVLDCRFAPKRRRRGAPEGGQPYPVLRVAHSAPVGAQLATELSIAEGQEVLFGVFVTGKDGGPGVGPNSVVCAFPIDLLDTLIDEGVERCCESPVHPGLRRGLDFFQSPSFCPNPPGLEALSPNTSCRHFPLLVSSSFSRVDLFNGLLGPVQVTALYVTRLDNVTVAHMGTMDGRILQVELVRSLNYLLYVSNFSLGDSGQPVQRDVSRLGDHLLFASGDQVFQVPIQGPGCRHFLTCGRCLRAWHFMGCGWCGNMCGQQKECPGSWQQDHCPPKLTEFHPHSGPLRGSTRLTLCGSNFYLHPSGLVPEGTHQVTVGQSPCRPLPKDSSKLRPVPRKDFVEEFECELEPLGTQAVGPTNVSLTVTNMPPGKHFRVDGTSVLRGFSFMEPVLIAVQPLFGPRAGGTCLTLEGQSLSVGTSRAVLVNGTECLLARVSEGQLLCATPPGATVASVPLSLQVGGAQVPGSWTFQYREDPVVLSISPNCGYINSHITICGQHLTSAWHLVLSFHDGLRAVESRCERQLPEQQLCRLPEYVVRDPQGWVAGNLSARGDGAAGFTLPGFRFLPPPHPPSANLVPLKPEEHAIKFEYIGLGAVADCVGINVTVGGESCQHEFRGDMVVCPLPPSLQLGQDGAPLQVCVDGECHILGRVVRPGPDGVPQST
# T2: Semaphorin 3a (UniProt Q14563 21-771, limits assumed)
# T2 sequence (looked up): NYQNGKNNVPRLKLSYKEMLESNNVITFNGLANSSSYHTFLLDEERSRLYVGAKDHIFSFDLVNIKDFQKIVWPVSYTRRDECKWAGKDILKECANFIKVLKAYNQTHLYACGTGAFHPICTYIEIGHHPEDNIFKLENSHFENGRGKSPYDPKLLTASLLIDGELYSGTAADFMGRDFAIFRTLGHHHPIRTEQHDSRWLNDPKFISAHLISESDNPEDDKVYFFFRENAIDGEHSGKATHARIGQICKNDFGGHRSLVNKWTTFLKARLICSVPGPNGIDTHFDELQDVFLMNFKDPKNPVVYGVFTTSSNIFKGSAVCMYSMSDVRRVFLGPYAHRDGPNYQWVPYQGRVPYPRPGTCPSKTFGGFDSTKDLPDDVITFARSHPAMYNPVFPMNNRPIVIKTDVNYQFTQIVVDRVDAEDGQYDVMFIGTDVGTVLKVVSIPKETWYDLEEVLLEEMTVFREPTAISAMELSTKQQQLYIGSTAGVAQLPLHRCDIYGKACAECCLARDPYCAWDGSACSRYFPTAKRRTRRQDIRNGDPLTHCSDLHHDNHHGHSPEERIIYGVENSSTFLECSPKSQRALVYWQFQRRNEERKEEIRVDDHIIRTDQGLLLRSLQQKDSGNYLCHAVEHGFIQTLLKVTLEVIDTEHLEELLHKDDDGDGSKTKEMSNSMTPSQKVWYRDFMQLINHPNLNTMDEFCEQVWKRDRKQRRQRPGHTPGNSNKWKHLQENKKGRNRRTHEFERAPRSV
# B1: QD6 IgG (antibody, V domains shown)
# VH: QVQLVQSGAEVKKPGSSVKVSCKASGGTFSDNDFSWVRQAPGQGLEWMGAIVAVVRTETYAQKFQDRVKITADISTRTTYMELSSLRSEDTAVYYCARRLMSAISGPGAPLLMWGQGTLVTVSS
# VL: QSALTQPRSVSGSPGQSVTISCTGTSSDVGGYNYVSWYQQHPGKAPKLMIYDVSERPSGVPDRFSGSKSGNTASLTISGLQAEDEADYYCFSYTSSDTLEIFGGGTKLTVL
# notes: also called anti-EGFR antibody clone QD6
# B2: B09/IgG single-arm control antibody (bispecific antibody, part only; not given: non-binding control arm, V domains shown, part only)
# VH: QVQLVQSGAEVKKPGASVKVSCKASGYTFTDYYIHWVRQATGQGLEWMGWMNPNSGNTGYAQKFQGRVTMTRDTSISTAYMELSSLRSEDTAVYYCARGQGYTHSWGQGTMVTVSS
# VL: DIQMTQSPSTLSASVGDRVTITCRASEGIYHWLAWYQQKPGKAPKLLIYKASSLASGVPSRFSGSGSGTEFTLTISSLQPDDFATYYCQQYSNYPPTFGGGTKLEIK
# B3: Compound E, [177Lu]-Compound C-anti-EGFR-cMET conjugate (bispecific antibody, V domains shown)
# VH 1: B1 VH with V55F
# VL 1: B1 VL with E55K, F91S
# VH 2: B2 VH
# VL 2: B2 VL
# modifications: 177Lu-DOTA chelate-linker (Compound C) on lysine side chains, sites not stated; 177Lu-DOTA chelate-linker (Compound C) on lysine side chains, sites not stated; chelate-to-antibody ratio 5.3 for the whole antibody
# notes: also called [177Lu]-DOTA-anti-EGFR-cMET
# B4: QD6/B09-57 DuetMab (bispecific antibody, V domains shown)
# VH 1: B1 VH
# VL 1: B1 VL
# VH 2: B2 VH
# VL 2: B2 VL
# notes: also called QD6/B09 DuetMab; QD6/B09-AlexaFluor647
# Tests used:
# Ron (CD136) = biological target: T1, Ron (CD136); experiment: ELISA, antigen coated at 1 µg/mL, antibody titrated from 10 µg/mL
# Procedure: (§1) Specificity for EGFR and cMET species paralogs and closely related family members was determined by ELISA. Briefly, antigen solutions were prepared in PBS at 1 μg/mL and 50 microliters was coated onto half area ELISA assay plates. Plates were washed and blocked with 1% BSA in PBS containing 0.005% Tween-20 (PBS-T) for one hour at room temperature. […] Wells were incubated with 50 microliters of the indicated primary antibodies diluted in PBS-T in a 1:3 dilution series, starting at 10 μg/mL and ending at 0.002 μg/mL, except for the HER4 binding mAb control, MAB1131, for which the series started at 1 μg/mL. The wells were washed 4 times in PBS-T, then 50 μl of goat anti-human Fab HRP-labeled secondary antibody, diluted 1:5000 in PBS-T, was added to each well and incubated for one hour at room temperature. […] 50 microliters of TMB stop solution was added to all wells and the absorbance was read at 450 nm on a SpectraMax M5 microplate reader. Data were analyzed in the SoftMax Pro 5 software and plotted using GraphPad Prism 7 graphing software.
# (§2) To determine the species cross reactivity, ELISA assays were carried out as described above.
# Semaphorin 3a = biological target: T2, Semaphorin 3a; experiment: as above
# Procedure: as §1, §2
# mouse cMET (recombinant) = mouse cMET (recombinant) (mouse, UniProt P16056 25-929, limits assumed); experiment: as above
# Sequence of mouse cMET (recombinant) (P16056 25-929 limits assumed): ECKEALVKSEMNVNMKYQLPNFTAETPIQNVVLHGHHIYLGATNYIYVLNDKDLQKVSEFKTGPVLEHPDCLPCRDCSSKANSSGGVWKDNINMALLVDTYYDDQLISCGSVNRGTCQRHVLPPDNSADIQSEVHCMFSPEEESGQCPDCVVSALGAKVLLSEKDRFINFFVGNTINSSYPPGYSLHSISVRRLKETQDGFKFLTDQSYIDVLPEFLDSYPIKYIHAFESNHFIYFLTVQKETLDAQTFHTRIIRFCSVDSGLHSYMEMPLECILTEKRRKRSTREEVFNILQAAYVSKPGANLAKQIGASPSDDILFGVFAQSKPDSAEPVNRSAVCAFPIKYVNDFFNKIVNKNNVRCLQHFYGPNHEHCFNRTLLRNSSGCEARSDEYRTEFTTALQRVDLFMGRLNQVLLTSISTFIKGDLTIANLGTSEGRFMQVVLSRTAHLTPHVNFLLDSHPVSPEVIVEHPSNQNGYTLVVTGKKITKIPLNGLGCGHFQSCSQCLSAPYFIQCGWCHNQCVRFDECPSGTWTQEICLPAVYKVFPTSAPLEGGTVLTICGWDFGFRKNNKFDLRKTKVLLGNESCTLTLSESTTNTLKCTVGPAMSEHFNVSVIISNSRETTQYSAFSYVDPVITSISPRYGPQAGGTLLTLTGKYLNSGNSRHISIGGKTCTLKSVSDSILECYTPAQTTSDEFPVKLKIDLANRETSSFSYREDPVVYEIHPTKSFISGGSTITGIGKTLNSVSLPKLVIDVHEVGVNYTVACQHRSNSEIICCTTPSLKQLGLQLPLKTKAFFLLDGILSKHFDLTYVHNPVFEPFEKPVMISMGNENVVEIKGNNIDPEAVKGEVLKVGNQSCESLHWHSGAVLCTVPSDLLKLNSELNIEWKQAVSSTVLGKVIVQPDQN
# Procedure: as §1, §2
# [1] = biological target: c-MET receptor on the cell surface (H1975 cells) (UniProt P08581); experiment: cell-based or functional assay
# Sequence of c-MET receptor on the cell surface (H1975 cells) (P08581 25-1390): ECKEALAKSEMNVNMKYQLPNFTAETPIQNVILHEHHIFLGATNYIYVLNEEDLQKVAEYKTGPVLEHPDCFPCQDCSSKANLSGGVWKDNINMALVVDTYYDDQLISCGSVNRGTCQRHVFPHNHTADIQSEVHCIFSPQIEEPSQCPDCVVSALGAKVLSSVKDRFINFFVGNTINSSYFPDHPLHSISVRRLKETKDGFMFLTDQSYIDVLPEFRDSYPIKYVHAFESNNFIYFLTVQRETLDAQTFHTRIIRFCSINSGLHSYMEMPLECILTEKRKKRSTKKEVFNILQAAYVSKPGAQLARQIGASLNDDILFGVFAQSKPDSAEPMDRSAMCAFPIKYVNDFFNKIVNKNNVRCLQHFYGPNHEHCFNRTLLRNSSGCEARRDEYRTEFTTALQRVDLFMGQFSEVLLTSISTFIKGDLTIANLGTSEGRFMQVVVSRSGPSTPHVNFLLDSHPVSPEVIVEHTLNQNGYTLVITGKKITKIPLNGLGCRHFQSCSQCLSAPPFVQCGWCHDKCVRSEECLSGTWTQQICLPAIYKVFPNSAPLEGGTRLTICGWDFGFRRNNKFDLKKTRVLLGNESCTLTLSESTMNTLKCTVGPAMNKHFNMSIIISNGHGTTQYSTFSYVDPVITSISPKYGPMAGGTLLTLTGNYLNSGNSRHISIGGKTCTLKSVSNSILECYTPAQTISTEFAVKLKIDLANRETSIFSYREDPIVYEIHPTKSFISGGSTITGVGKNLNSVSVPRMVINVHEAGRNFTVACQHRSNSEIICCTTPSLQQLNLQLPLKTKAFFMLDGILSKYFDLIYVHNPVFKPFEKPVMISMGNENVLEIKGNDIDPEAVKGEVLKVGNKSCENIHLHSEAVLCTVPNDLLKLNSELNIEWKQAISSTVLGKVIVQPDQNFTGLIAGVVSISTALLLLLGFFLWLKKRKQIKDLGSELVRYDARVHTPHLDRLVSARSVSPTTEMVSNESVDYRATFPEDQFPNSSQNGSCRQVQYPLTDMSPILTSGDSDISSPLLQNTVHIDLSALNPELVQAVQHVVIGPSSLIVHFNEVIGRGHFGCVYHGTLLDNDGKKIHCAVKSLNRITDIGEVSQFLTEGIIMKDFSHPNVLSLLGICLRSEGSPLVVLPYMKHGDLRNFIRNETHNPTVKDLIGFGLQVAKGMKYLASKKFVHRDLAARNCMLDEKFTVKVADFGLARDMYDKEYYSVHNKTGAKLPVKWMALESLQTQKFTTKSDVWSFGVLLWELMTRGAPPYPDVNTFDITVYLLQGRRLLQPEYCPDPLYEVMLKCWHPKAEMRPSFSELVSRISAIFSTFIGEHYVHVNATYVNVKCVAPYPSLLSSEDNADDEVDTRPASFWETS
# [2] = biological target: T3, EGFR and cMET co-expressed on the surface of tumour cell lines (HCC827, HT29, H441, H1975) (UniProt P00533 25-1210; P08581 25-1390); experiment: saturation radioligand binding on HT29 cells, 4 C, specific binding (4 µM cold antibody for non-specific), single-site fit
# T3 construct: whole, on cells; Target of the bispecific molecules on cells that carry both receptors; the cell line of each value stands under assay; also called EGFR and c-MET expressing cell line; EGFR and/or cMET expressing cell lines
# Procedure: (§3) The purpose of this assay was to ensure that the radioimmunoconjugates maintained the binding characteristics of the native antibody in EGFR and/or cMET expressing cell lines including HT29, H441, HT29, HCC827, and H1975. One day prior to the experiment, cells (1.5-2×10⁵) were seeded in 48-well microplates in 500 μL supplemented medium. At the start of the assay, cells were washed with PBS once and then treated with increasing concentrations of Compound E (0.05 nM to 100 nM) in the absence and presence of 4 μM cold antibody [total binding (TB) and non-specific binding (NSB) respectively]. Plates were incubated at 4° C. for about 3 hours with mild shaking. Following incubation, the cells were washed twice with PBS and were then lysed with 1% Triton-X-100. The lysates were transferred to gamma counting tubes and run along with Compound E standards on the Wizard 1470 gamma counter to determine the amount of radioactivity in counts per minute (CPM) for each lysate. The remaining lysate from each well (25 μL) was used for analyzing the protein content using a standard protein quantification assay.
# [3] = biological target: T3, EGFR and cMET co-expressed on the …; experiment: saturation radioligand binding on H441 cells, 4 C, specific binding (4 µM cold antibody for non-specific), single-site fit
# Procedure: as §3
# [4] = biological target: T3, EGFR and cMET co-expressed on the …; experiment: saturation radioligand binding on HCC827 cells, 4 C, specific binding (4 µM cold antibody for non-specific), single-site fit
# Procedure: as §3
# [5] = biological target: T3, EGFR and cMET co-expressed on the …; experiment: saturation radioligand binding on H1975 cells, 4 C, specific binding (4 µM cold antibody for non-specific), single-site fit
# Procedure: as §3
# [6] = biological target: T4, human cMET (recombinant, soluble monomeric) (human, UniProt P08581 25-932); experiment: SPR (BIAcore T200), antibody captured on anti-human IgG, soluble monomeric antigen as analyte, 25 C, 1:1 fit
# T4 construct: also called cMET antigen; His-tagged cMET antigen
# T4 sequence (P08581 25-932): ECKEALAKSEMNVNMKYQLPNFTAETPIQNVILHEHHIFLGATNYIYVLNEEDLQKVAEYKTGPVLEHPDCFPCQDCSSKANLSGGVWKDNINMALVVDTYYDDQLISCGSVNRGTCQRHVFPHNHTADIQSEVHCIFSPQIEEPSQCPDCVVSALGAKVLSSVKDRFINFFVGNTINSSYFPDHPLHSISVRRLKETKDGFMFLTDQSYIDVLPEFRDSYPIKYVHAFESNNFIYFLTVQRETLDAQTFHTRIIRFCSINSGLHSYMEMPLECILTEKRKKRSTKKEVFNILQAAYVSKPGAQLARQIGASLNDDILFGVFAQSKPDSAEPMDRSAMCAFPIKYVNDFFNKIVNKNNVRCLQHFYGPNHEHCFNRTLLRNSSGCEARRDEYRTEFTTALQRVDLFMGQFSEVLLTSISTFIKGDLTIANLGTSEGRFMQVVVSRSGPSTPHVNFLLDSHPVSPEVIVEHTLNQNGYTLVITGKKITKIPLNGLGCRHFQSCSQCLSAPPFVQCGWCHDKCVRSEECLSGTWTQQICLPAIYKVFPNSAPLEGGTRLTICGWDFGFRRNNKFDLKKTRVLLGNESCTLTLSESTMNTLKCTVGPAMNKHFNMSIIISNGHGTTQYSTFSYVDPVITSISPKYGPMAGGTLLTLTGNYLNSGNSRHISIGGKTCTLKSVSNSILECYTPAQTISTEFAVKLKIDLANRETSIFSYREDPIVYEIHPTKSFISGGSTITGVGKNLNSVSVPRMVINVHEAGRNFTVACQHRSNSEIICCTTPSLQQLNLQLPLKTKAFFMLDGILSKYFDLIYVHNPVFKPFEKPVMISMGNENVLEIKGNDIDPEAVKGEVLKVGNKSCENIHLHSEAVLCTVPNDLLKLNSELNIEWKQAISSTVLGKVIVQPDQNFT
# Procedure: (§4) Mouse anti-human IgG was immobilized on a CM4 sensor chip with a final surface density of ˜2000 resonance units (RUs). A reference flow cell surface was also prepared on this sensor chip using identical immobilization protocol. Test and control article antibodies were prepared at 5-20 nM in instrument buffer (HBS-EP buffer; 0.01M HEPES, pH 7.4, 0.15M NaCl, 3 mM EDTA, and 0.005% P-20), along with 3-fold serial dilutions of purified EGFR (0.27-200 nM human, 0.4-900 nM cyno, and 4-1000 nM murine) or cMET proteins (0.27-66 nM human and 0.27-22 nM cyno) in instrument buffer. A sequential approach was utilized for kinetic measurements. Antibodies were first injected over the capture surface, at a flow rate of 10 μL/minute. Once the binding of the captured antibody stabilized, a single concentration of the analyte was injected over both capture and reference surfaces, at a flow rate of 75 μL/minute. The resulting binding response curves yielded the association phase data. Following the injection of analyte, the flow was then switched back to instrument buffer for 15 minutes to permit the collection of dissociation phase data, followed by a 1-minute pulse of 10 mM glycine, pH 1.5, to regenerate the antibody-captured surface on the chip. Binding responses against test and control article antibodies were recorded from duplicate injections of each concentration of analyte. In addition, several buffer injections were interspersed throughout the injection series. Select buffer injections were used along with the reference cell responses to correct the raw data sets for injection artifacts and/or nonspecific binding interactions, commonly referred to as “double referencing”. Corrected binding data were globally fit to a 1:1 binding model (Biacore T200 Evaluation software 2.0, GE Healthcare, Pittsburgh, PA).
# (§5) Kinetic measurements to soluble monomeric forms of EGFR and cMET were performed using a BIACore instrument.
# [7] = biological target: T5, human EGFR (recombinant, soluble monomeric) (human, UniProt P00533 25-645); experiment: as above
# T5 construct: also called EGFR antigen
# Procedure: as §4, §5
# [8] = biological target: T6, cynomolgus monkey EGFR (recombinant, soluble monomeric) (cynomolgus monkey, UniProt P55245 25-645 (rhesus entry)); experiment: as above
# T6 construct: also called cyno EGFR
# Procedure: as §4, §5
# mouse EGFR (recombinant) = biological target: T7, mouse EGFR (recombinant) (mouse, UniProt Q01279 25-647); experiment: as above
# T7 construct: also called murine EGFR
# Procedure: as §4, §5
# [9] = biological target: T8, cynomolgus monkey cMET (recombinant, soluble monomeric) (cynomolgus monkey, UniProt A0M8R7 25-932 (Papio anubis entry)); experiment: as above
# T8 construct: also called cyno cMET
# T8 sequence (A0M8R7 25-932 S170N/I621T): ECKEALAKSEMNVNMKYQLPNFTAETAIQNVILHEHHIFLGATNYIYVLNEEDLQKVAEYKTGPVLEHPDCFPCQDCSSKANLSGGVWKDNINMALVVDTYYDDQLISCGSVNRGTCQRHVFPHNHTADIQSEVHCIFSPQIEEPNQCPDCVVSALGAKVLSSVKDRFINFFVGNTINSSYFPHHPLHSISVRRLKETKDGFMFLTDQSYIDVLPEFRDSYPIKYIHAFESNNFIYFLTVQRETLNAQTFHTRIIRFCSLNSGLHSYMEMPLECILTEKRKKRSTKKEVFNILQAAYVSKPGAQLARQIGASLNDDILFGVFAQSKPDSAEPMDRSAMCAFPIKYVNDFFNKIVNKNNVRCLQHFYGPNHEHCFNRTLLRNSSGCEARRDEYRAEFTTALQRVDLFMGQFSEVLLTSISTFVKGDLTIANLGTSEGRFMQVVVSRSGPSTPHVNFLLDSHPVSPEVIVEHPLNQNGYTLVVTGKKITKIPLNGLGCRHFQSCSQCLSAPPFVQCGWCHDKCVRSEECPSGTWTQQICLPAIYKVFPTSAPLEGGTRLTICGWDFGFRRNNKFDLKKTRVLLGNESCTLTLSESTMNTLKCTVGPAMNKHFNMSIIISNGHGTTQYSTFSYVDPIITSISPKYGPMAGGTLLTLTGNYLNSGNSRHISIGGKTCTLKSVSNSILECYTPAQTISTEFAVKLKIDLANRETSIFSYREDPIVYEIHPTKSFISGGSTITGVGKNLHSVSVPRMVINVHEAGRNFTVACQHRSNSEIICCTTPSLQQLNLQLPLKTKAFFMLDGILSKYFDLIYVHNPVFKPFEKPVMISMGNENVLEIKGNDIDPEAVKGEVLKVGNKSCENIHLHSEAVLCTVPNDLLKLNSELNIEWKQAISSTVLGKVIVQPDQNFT
# Procedure: as §4, §5
binder,measurement,setting,value
B1,binding result,Ron (CD136),no binding (tested: 10 µg/mL)
same,binding result,Semaphorin 3a,no binding (tested: 10 µg/mL)
same,binding result,mouse cMET (recombinant),no binding (tested: 10 µg/mL)
B2,"cytoplasmic intensity (AlexaFluor647, confocal microscopy, H1975 cells): fold higher for RAA22/B09 DuetMab than for B09-IgG",[1],4.7 fold
B3,Kd,[2],~5.7 nM
same,Kd,[3],~15.5 nM
same,Kd,[4],~9.9 nM
same,Kd,[5],~6 nM
B4,Kd,[6],1.6 nM
same,koff,[6],0.000696 s⁻¹
same,kon,[6],425000 M⁻¹ s⁻¹
same,Kd,[7],5.9 nM
same,koff,[7],0.000374 s⁻¹
same,kon,[7],63500 M⁻¹ s⁻¹
same,Kd,[8],2.8 nM
same,koff,[8],0.000585 s⁻¹
same,kon,[8],210000 M⁻¹ s⁻¹
same,Kd,mouse EGFR (recombinant),6.2 nM
same,koff,mouse EGFR (recombinant),0.00078 s⁻¹
same,kon,mouse EGFR (recombinant),126000 M⁻¹ s⁻¹
same,Kd,[9],2.2 nM
same,koff,[9],0.00206 s⁻¹
same,kon,[9],958000 M⁻¹ s⁻¹
same,binding result,Ron (CD136),no binding (tested: 10 µg/mL)
same,binding result,Semaphorin 3a,no binding (tested: 10 µg/mL)
same,binding result,mouse cMET (recombinant),no binding (tested: 10 µg/mL)
